In paper PMC5601897, “The catalytic subunit of DNA polymerase δ inhibits γTuRC activity and regulates Golgi-derived microtubules” (Nature Communications, 2017):

Molecular target: γ-tubulin ring complex (γTuRC), purified (human (endogenous in HEK293T), UniProt P23258 1-451; Q9BSJ2 1-902; Q96CW5 1-907; Q9UGJ1 1-667; Q96RT8 1-1024; Q96RT7 …)
Assay: cell-based or functional assay

B1: recombinant FLAG-PolD1 (wild type), purified (natural protein, human, UniProt P28340 1-1107, looked up)
chain: MDGKRRPGPGPGVPPKRARGGLWDDDDAPRPSQFEEDLALMEEMEAEHRLQEQEEEELQSVLEGVADGQVPPSAIDPRWLRPTPPALDPQTEPLIFQQLEIDHYVGPAQPVPGGPPPSRGSVPVLRAFGVTDEGFSVCCHIHGFAPYFYTPAPPGFGPEHMGDLQRELNLAISRDSRGGRELTGPAVLAVELCSRESMFGYHGHGPSPFLRITVALPRLVAPARRLLEQGIRVAGLGTPSFAPYEANVDFEIRFMVDTDIVGCNWLELPAGKYALRLKEKATQCQLEADVLWSDVVSHPPEGPWQRIAPLRVLSFDIECAGRKGIFPEPERDPVIQICSLGLRWGEPEPFLRLALTLRPCAPILGAKVQSYEKEEDLLQAWSTFIRIMDPDVITGYNIQNFDLPYLISRAQTLKVQTFPFLGRVAGLCSNIRDSSFQSKQTGRRDTKVVSMVGRVQMDMLQVLLREYKLRSYTLNAVSFHFLGEQKEDVQHSIITDLQNGNDQTRRRLAVYCLKDAYLPLRLLERLMVLVNAVEMARVTGVPLSYLLSRGQQVKVVSQLLRQAMHEGLLMPVVKSEGGEDYTGATVIEPLKGYYDVPIATLDFSSLYPSIMMAHNLCYTTLLRPGTAQKLGLTEDQFIRTPTGDEFVKTSVRKGLLPQILENLLSARKRAKAELAKETDPLRRQVLDGRQLALKVSANSVYGFTGAQVGKLPCLEISQSVTGFGRQMIEKTKQLVESKYTVENGYSTSAKVVYGDTDSVMCRFGVSSVAEAMALGREAADWVSGHFPSPIRLEFEKVYFPYLLISKKRYAGLLFSSRPDAHDRMDCKGLEAVRRDNCPLVANLVTASLRRLLIDRDPEGAVAHAQDVISDLLCNRIDISQLVITKELTRAASDYAGKQAHVELAERMRKRDPGSAPSLGDRVPYVIISAAKGVAAYMKSEDPLFVLEHSLPIDTQYYLEQQLAKPLLRIFEPILGEGRAEAVLLRGDHTRCKTVLTGKVGGLLAFAKRRNCCIGCRTVLSHQGAVCEFCQPRESELYQKEVSHLNALEERFSRLWTQCQRCQGSLHEDVICTSRDCPIFYMRKKVRKDLEDQEQLLRRFGPPGPEAW
With B1 the “IC50 of inhibition of in vitro microtubule nucleation by purified γTuRCs reconstituted with CDK5RAP2(51–200) (28 nM); PolD1 at various concentrations” value was 98 nM.
